Data as given in US20240182563A1 (GENOME, published 2024).
Read-outs that look alike come from different tables or passages of the source.

Legend:
Experiment in all cases: ELISA, plate coated with CNTN4-10xHis, anti-human Fc-HRP
human CNTN4-10xHis [1] = biological target: T1, human CNTN4-10xHis (human, UniProt Q8IWV2 19-1000)
T1 sequence: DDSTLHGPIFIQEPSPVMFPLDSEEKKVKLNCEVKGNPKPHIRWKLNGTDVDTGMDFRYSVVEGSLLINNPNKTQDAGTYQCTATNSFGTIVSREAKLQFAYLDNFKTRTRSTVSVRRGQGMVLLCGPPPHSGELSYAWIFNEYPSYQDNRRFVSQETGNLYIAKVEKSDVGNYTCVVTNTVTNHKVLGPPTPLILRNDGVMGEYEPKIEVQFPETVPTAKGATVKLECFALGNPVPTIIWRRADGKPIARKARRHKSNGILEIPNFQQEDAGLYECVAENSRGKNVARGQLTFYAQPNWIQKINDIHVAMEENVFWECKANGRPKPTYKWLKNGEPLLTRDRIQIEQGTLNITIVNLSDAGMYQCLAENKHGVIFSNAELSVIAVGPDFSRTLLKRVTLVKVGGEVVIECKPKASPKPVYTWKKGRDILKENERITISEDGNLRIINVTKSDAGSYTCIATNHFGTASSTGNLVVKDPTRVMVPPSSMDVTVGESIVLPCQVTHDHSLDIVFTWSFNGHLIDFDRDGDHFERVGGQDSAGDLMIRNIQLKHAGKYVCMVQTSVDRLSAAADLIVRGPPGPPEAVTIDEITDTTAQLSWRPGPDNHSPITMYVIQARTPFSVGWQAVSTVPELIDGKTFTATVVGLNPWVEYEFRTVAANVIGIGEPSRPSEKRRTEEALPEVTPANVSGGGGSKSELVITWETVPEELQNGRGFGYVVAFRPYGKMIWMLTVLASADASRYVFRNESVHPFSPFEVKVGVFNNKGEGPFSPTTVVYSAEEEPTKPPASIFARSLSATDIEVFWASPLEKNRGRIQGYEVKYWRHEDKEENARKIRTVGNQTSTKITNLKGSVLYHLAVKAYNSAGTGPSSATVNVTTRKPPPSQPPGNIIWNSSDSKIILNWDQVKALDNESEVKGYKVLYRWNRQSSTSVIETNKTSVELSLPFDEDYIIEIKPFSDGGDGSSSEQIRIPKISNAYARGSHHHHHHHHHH
Description: (§1) The LAH2, L1H2, and L2H2 antibodies prepared in Example 3.1 were subjected to an ELISA test together with A-01. An ELISA plate was coated with 200 ng of antigens (human CNTN4-10xHis or mouse CNTN4-10xHis). For antibody binding, antibodies were serially diluted from a maximum of 1 μM to 0.0001 nM, thereby binding to the antigen. Anti-human Fc-HRP was used as a secondary antibody for antibody detection. Color was developed using ABTS, which is a color developing reagent, and the absorbance at 405 nm was measured.

mouse CNTN4-10xHis [2] = biological target: T2, mouse CNTN4-10xHis (mouse, UniProt Q69Z26 19-1000)
T2 sequence: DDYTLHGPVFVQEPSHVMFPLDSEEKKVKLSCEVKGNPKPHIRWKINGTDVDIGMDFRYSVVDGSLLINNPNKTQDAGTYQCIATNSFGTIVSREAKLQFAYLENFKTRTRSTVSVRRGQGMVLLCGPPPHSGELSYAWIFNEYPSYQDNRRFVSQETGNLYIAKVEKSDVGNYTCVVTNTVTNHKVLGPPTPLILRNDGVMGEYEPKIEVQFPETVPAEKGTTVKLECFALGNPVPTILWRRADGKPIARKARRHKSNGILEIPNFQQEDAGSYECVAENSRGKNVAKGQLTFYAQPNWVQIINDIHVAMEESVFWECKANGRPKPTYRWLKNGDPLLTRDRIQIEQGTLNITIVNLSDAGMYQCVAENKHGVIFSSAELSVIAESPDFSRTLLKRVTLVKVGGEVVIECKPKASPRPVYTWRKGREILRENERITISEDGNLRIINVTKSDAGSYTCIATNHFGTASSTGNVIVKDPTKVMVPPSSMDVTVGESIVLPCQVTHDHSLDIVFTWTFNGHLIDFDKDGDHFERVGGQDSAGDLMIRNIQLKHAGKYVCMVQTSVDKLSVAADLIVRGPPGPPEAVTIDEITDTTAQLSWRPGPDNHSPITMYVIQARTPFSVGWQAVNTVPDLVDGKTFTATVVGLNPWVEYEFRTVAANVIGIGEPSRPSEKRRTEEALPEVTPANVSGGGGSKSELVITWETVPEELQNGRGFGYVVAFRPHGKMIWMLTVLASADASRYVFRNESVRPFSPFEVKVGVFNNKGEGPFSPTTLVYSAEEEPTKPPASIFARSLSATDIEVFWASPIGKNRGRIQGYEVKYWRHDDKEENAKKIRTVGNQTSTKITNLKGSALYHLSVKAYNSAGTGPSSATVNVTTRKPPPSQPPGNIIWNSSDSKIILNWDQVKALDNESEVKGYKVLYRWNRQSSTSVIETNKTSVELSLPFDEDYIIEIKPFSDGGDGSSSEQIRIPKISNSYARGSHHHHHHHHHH
Description: as §1

human CNTN4-10xHis [3] = biological target: T1, human CNTN4-10xHis; remark: listed apart in the source
Description: (§2) An ELISA test was performed on A-01 prepared in Example 2.1. An ELISA plate was coated with 200 ng of antigens (human CNTN4-10xHis or mouse CNTN4-10xHis). For antibody binding, A-01 was serially diluted from a maximum of 1 μM to 0.0001 nM, thereby binding to the antigen. Anti-human Fc-HRP was used as a secondary antibody for antibody detection. Color was developed using ABTS, which is a color developing reagent, and the absorbance at 405 nm was measured.

mouse CNTN4-10xHis [4] = biological target: T2, mouse CNTN4-10xHis; remark: listed apart in the source
Description: as §2

Measured: EC50

B1: anti-CNTN4 129 chimeric IgG4-S228P (antibody, V domains shown)
VH: AVTLDESEGGLQTPGGALSLVCKASGFTFSSFNMFWVRQAPGKGLEYVAEISGGGGSTWYAPAVKGRATISRDNGQSTVRLQLNNLRAEDTGTYYCAKSADTWSYGAATIDAWGHGTEVIVSS
VL: ALTQPSSVSANLGETVKITCSGSSGSYGWYQQKSPGSAPVTLIYDNTNRPSDIPSRFSGSGSGSTGTLTITGVRAEDEAVYYCGGYDGSTDVFGAGTTLTVL
notes: chicken-human chimeric IgG4-S228P made from S129, kappa light chain constant region (Kappa select); also called A-01; LAHA
0.011 nM: all assays above
